Assay [1] concerns the target T1, soluble monomeric FcγRIIIA (extracellular region joined to linker-AVITAG), allele not stated (human, UniProt P08637 17-208).
T1 construct: extracellular domain; also called FcRIIIA; CD16A; not shown: linker-AVITAG
Nature of the assay: ELISA.

In assay [2] the target is T2, soluble dimeric FcγRIIB (extracellular domain fused to hinge-CH2-CH3 of human IgG2) (human, UniProt P31994 43-217).
T2 construct: extracellular domain; also called FcRIIB; FcRIIB-Fc; not shown: human IgG2 hinge-CH2-CH3
T2 sequence (looked up): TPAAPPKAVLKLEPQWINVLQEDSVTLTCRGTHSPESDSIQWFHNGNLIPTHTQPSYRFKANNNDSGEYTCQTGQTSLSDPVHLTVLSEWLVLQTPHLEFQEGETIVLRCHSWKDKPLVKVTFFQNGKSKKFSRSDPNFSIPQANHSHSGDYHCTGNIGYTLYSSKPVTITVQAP
In words: ELISA.

T1 sequence (P08637 17-208): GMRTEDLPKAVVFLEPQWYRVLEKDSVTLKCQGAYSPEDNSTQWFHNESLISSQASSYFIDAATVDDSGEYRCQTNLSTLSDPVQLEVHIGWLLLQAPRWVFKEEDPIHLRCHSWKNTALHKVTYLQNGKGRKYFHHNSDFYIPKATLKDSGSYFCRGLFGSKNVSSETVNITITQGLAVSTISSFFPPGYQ

B1: IgG1 Fc mutant A231V, Q386H, V412M (antibody)
heavy: ASTKGPSVFPLAPSSKSTSGGTAALGCLVKDYFPEPVTVSWNSGALTSGVHTFPAVLQSSGLYSLSSVVTVPSSSLGTQTYICNVNHKPSNTKVDKKVEPKSCDKTHTCPPCPVPELLGGPSVFLFPPKPKDTLMISRTPEVTCVVVDVSHEDPEVKFNWYVDGVEVHNAKTKPREEQYNSTYRVVSVLTVLHQDWLNGKEYKCKVSNKALPAPIEKTISKAKGQPREPQVYTLPPSRDELTKNQVSLTCLVKGFYPSDIAVEWESNGHPENNYKTTPPVLDSDGSFFLYSKLTMDKSRWQQGNVFSCSVMHEALHNHYTQKSLSLSPGK
Turning to B1, the “Binding to FcγRIIIA (ELISA)” value in assay [1] stood at 1.5 fold increase. In addition, the “Binding to FcγRIIB (ELISA)” value in assay [2] came out at 6 fold increase.

B2: IgG1 Fc mutant P244A, K326I, C367R, S375I, K447T (antibody)
heavy: ASTKGPSVFPLAPSSKSTSGGTAALGCLVKDYFPEPVTVSWNSGALTSGVHTFPAVLQSSGLYSLSSVVTVPSSSLGTQTYICNVNHKPSNTKVDKKVEPKSCDKTHTCPPCPAPELLGGPSVFLFAPKPKDTLMISRTPEVTCVVVDVSHEDPEVKFNWYVDGVEVHNAKTKPREEQYNSTYRVVSVLTVLHQDWLNGKEYKCKVSNIALPAPIEKTISKAKGQPREPQVYTLPPSRDELTKNQVSLTRLVKGFYPIDIAVEWESNGQPENNYKTTPPVLDSDGSFFLYSKLTVDKSRWQQGNVFSCSVMHEALHNHYTQKSLSLSPGT
On to B2, for which, in assay [2], the “Binding to FcγRIIB (ELISA)” value came to 3 fold increase.

B3: IgG1 Fc mutant K246I, Q362H, K370E (antibody)
heavy: ASTKGPSVFPLAPSSKSTSGGTAALGCLVKDYFPEPVTVSWNSGALTSGVHTFPAVLQSSGLYSLSSVVTVPSSSLGTQTYICNVNHKPSNTKVDKKVEPKSCDKTHTCPPCPAPELLGGPSVFLFPPIPKDTLMISRTPEVTCVVVDVSHEDPEVKFNWYVDGVEVHNAKTKPREEQYNSTYRVVSVLTVLHQDWLNGKEYKCKVSNKALPAPIEKTISKAKGQPREPQVYTLPPSRDELTKNHVSLTCLVEGFYPSDIAVEWESNGQPENNYKTTPPVLDSDGSFFLYSKLTVDKSRWQQGNVFSCSVMHEALHNHYTQKSLSLSPGK
As for B3, the binding result in assay [1] was “no binding”. Besides, the “Binding to FcγRIIB (ELISA)” value in assay [2] came to 0.5 fold decrease.

B4: IgG1 Fc mutant F243L, V305I, A378D, F404S, P396L (antibody)
heavy: ASTKGPSVFPLAPSSKSTSGGTAALGCLVKDYFPEPVTVSWNSGALTSGVHTFPAVLQSSGLYSLSSVVTVPSSSLGTQTYICNVNHKPSNTKVDKKVEPKSCDKTHTCPPCPAPELLGGPSVFLLPPKPKDTLMISRTPEVTCVVVDVSHEDPEVKFNWYVDGVEVHNAKTKPREEQYNSTYRVVSILTVLHQDWLNGKEYKCKVSNKALPAPIEKTISKAKGQPREPQVYTLPPSRDELTKNQVSLTCLVKGFYPSDIDVEWESNGQPENNYKTTPLVLDSDGSSFLYSKLTVDKSRWQQGNVFSCSVMHEALHNHYTQKSLSLSPGK
As to B4, the “Binding to FcγRIIIA (ELISA)” value in assay [1] was found to be 1.6 fold increase. Further, the “Binding to FcγRIIB (ELISA)” value in assay [2] stood at 5.4 fold increase.

B5: IgG1 Fc mutant D221Y, M252I, A330G, A339T, T359N, V422I, H433L (antibody)
heavy: ASTKGPSVFPLAPSSKSTSGGTAALGCLVKDYFPEPVTVSWNSGALTSGVHTFPAVLQSSGLYSLSSVVTVPSSSLGTQTYICNVNHKPSNTKVDKKVEPKSCYKTHTCPPCPAPELLGGPSVFLFPPKPKDTLIISRTPEVTCVVVDVSHEDPEVKFNWYVDGVEVHNAKTKPREEQYNSTYRVVSVLTVLHQDWLNGKEYKCKVSNKALPGPIEKTISKTKGQPREPQVYTLPPSRDELNKNQVSLTCLVKGFYPSDIAVEWESNGQPENNYKTTPPVLDSDGSFFLYSKLTVDKSRWQQGNIFSCSVMHEALLNHYTQKSLSLSPGK
On to B5, for which, in assay [1], the “Binding to FcγRIIIA (ELISA)” value turned out to be 2.5 fold increase. Moreover, the “Binding to FcγRIIB (ELISA)” value in assay [2] amounted to 6 fold increase.

B6: IgG1 Fc mutant T335N, K370E, A378V, T394M, S424L (antibody)
heavy: ASTKGPSVFPLAPSSKSTSGGTAALGCLVKDYFPEPVTVSWNSGALTSGVHTFPAVLQSSGLYSLSSVVTVPSSSLGTQTYICNVNHKPSNTKVDKKVEPKSCDKTHTCPPCPAPELLGGPSVFLFPPKPKDTLMISRTPEVTCVVVDVSHEDPEVKFNWYVDGVEVHNAKTKPREEQYNSTYRVVSVLTVLHQDWLNGKEYKCKVSNKALPAPIEKNISKAKGQPREPQVYTLPPSRDELTKNQVSLTCLVEGFYPSDIVVEWESNGQPENNYKTMPPVLDSDGSFFLYSKLTVDKSRWQQGNVFLCSVMHEALHNHYTQKSLSLSPGK
Regarding B6, the “Binding to FcγRIIIA (ELISA)” value in assay [1] stood at 0.5 fold increase.

B7: IgG1 Fc mutant E269K, K290N, Q311R, H433Y (antibody)
heavy: ASTKGPSVFPLAPSSKSTSGGTAALGCLVKDYFPEPVTVSWNSGALTSGVHTFPAVLQSSGLYSLSSVVTVPSSSLGTQTYICNVNHKPSNTKVDKKVEPKSCDKTHTCPPCPAPELLGGPSVFLFPPKPKDTLMISRTPEVTCVVVDVSHKDPEVKFNWYVDGVEVHNAKTNPREEQYNSTYRVVSVLTVLHRDWLNGKEYKCKVSNKALPAPIEKTISKAKGQPREPQVYTLPPSRDELTKNQVSLTCLVKGFYPSDIAVEWESNGQPENNYKTTPPVLDSDGSFFLYSKLTVDKSRWQQGNVFSCSVMHEALYNHYTQKSLSLSPGK
B7: the binding result in assay [1] and in assay [2] was “no binding” each time.

B8: IgG1 Fc mutant K246E, V284M, V308A (antibody)
heavy: ASTKGPSVFPLAPSSKSTSGGTAALGCLVKDYFPEPVTVSWNSGALTSGVHTFPAVLQSSGLYSLSSVVTVPSSSLGTQTYICNVNHKPSNTKVDKKVEPKSCDKTHTCPPCPAPELLGGPSVFLFPPEPKDTLMISRTPEVTCVVVDVSHEDPEVKFNWYVDGVEMHNAKTKPREEQYNSTYRVVSVLTALHQDWLNGKEYKCKVSNKALPAPIEKTISKAKGQPREPQVYTLPPSRDELTKNQVSLTCLVKGFYPSDIAVEWESNGQPENNYKTTPPVLDSDGSFFLYSKLTVDKSRWQQGNVFSCSVMHEALHNHYTQKSLSLSPGK
As to B8, the binding result in assay [1] and in assay [2] was “no binding” in each case.

B9: IgG1 Fc mutant C229Y, A287T, V379M, P396L, L443V (antibody)
heavy: ASTKGPSVFPLAPSSKSTSGGTAALGCLVKDYFPEPVTVSWNSGALTSGVHTFPAVLQSSGLYSLSSVVTVPSSSLGTQTYICNVNHKPSNTKVDKKVEPKSCDKTHTCPPYPAPELLGGPSVFLFPPKPKDTLMISRTPEVTCVVVDVSHEDPEVKFNWYVDGVEVHNTKTKPREEQYNSTYRVVSVLTVLHQDWLNGKEYKCKVSNKALPAPIEKTISKAKGQPREPQVYTLPPSRDELTKNQVSLTCLVKGFYPSDIAMEWESNGQPENNYKTTPLVLDSDGSFFLYSKLTVDKSRWQQGNVFSCSVMHEALHNHYTQKSLSVSPGK
On to B9, for which, in assay [1], the “Binding to FcγRIIIA (ELISA)” value was determined as 0.25 fold decrease. Moreover, the “Binding to FcγRIIB (ELISA)” value in assay [2] turned out to be 10 fold increase.

B10: IgG1 Fc mutant T256S, V305I, K334E, N390S (antibody)
heavy: ASTKGPSVFPLAPSSKSTSGGTAALGCLVKDYFPEPVTVSWNSGALTSGVHTFPAVLQSSGLYSLSSVVTVPSSSLGTQTYICNVNHKPSNTKVDKKVEPKSCDKTHTCPPCPAPELLGGPSVFLFPPKPKDTLMISRSPEVTCVVVDVSHEDPEVKFNWYVDGVEVHNAKTKPREEQYNSTYRVVSILTVLHQDWLNGKEYKCKVSNKALPAPIEETISKAKGQPREPQVYTLPPSRDELTKNQVSLTCLVKGFYPSDIAVEWESNGQPENSYKTTPPVLDSDGSFFLYSKLTVDKSRWQQGNVFSCSVMHEALHNHYTQKSLSLSPGK
Turning to B10, the “Binding to FcγRIIIA (ELISA)” value in assay [1] came out at 1.5 fold increase.

B11: IgG1 Fc mutant F275L, Q362H, N384K, P396L (antibody)
heavy: ASTKGPSVFPLAPSSKSTSGGTAALGCLVKDYFPEPVTVSWNSGALTSGVHTFPAVLQSSGLYSLSSVVTVPSSSLGTQTYICNVNHKPSNTKVDKKVEPKSCDKTHTCPPCPAPELLGGPSVFLFPPKPKDTLMISRTPEVTCVVVDVSHEDPEVKLNWYVDGVEVHNAKTKPREEQYNSTYRVVSVLTVLHQDWLNGKEYKCKVSNKALPAPIEKTISKAKGQPREPQVYTLPPSRDELTKNHVSLTCLVKGFYPSDIAVEWESKGQPENNYKTTPLVLDSDGSFFLYSKLTVDKSRWQQGNVFSCSVMHEALHNHYTQKSLSLSPGK
Regarding B11, in assay [1], the “Binding to FcγRIIIA (ELISA)” value came out at 2.2 fold increase. Besides, in assay [2], the “Binding to FcγRIIB (ELISA)” value worked out at 3.7 fold increase.

B12: IgG1 Fc mutant A378V, N390I, V422I (antibody)
heavy: ASTKGPSVFPLAPSSKSTSGGTAALGCLVKDYFPEPVTVSWNSGALTSGVHTFPAVLQSSGLYSLSSVVTVPSSSLGTQTYICNVNHKPSNTKVDKKVEPKSCDKTHTCPPCPAPELLGGPSVFLFPPKPKDTLMISRTPEVTCVVVDVSHEDPEVKFNWYVDGVEVHNAKTKPREEQYNSTYRVVSVLTVLHQDWLNGKEYKCKVSNKALPAPIEKTISKAKGQPREPQVYTLPPSRDELTKNQVSLTCLVKGFYPSDIVVEWESNGQPENIYKTTPPVLDSDGSFFLYSKLTVDKSRWQQGNIFSCSVMHEALHNHYTQKSLSLSPGK
Consider B12, for which, in assay [1], the “Binding to FcγRIIIA (ELISA)” value is 0.5 fold increase. The “Binding to FcγRIIB (ELISA)” value in assay [2] came out at 5 fold increase.

B13: IgG1 Fc mutant K222N, T335N, K370E, A378V, T394M (antibody)
heavy: ASTKGPSVFPLAPSSKSTSGGTAALGCLVKDYFPEPVTVSWNSGALTSGVHTFPAVLQSSGLYSLSSVVTVPSSSLGTQTYICNVNHKPSNTKVDKKVEPKSCDNTHTCPPCPAPELLGGPSVFLFPPKPKDTLMISRTPEVTCVVVDVSHEDPEVKFNWYVDGVEVHNAKTKPREEQYNSTYRVVSVLTVLHQDWLNGKEYKCKVSNKALPAPIEKNISKAKGQPREPQVYTLPPSRDELTKNQVSLTCLVEGFYPSDIVVEWESNGQPENNYKTMPPVLDSDGSFFLYSKLTVDKSRWQQGNVFSCSVMHEALHNHYTQKSLSLSPGK
For B13, the “Binding to FcγRIIIA (ELISA)” value in assay [1] was found to be 1 fold increase. For the same molecule, the “Binding to FcγRIIB (ELISA)” value in assay [2] was 7 fold increase.

B14: IgG1 Fc mutant D221E, D270E, V308A, Q311H, P396L, G402D (antibody)
heavy: ASTKGPSVFPLAPSSKSTSGGTAALGCLVKDYFPEPVTVSWNSGALTSGVHTFPAVLQSSGLYSLSSVVTVPSSSLGTQTYICNVNHKPSNTKVDKKVEPKSCEKTHTCPPCPAPELLGGPSVFLFPPKPKDTLMISRTPEVTCVVVDVSHEEPEVKFNWYVDGVEVHNAKTKPREEQYNSTYRVVSVLTALHHDWLNGKEYKCKVSNKALPAPIEKTISKAKGQPREPQVYTLPPSRDELTKNQVSLTCLVKGFYPSDIAVEWESNGQPENNYKTTPLVLDSDDSFFLYSKLTVDKSRWQQGNVFSCSVMHEALHNHYTQKSLSLSPGK
Regarding B14, the “Binding to FcγRIIIA (ELISA)” value in assay [1] is 3.6 fold increase. Besides, in assay [2], the “Binding to FcγRIIB (ELISA)” value amounted to 0.1 fold increase.
